Here are results for four molecules from publication PMC7821693, “Revealing biophysical properties of KfrA-type proteins as a novel class of cytoskeletal, coiled-coil plasmid-encoded proteins”.

Where “and” joins values, the source holds several entries; their conditions need not be identical. Equal values may be shown once.

Data set [1] addresses His6-KfrA_(R751) (plasmid R751 (IncP-1β)). In words: cross-linking; glutaraldehyde at different concentrations, protein 0.1 mg/ml, 20 min at 25 °C, 0.05 M bicine-NaOH pH 8.5, 0.1 mM DTT, 0.4 M NaCl; products on SDS-PAGE.
The target in data set [2] is T1, KfrA RA3 (His6-KfrARA3) (IncU plasmid RA3, UniProt Q209P3 1-355).
T1 sequence: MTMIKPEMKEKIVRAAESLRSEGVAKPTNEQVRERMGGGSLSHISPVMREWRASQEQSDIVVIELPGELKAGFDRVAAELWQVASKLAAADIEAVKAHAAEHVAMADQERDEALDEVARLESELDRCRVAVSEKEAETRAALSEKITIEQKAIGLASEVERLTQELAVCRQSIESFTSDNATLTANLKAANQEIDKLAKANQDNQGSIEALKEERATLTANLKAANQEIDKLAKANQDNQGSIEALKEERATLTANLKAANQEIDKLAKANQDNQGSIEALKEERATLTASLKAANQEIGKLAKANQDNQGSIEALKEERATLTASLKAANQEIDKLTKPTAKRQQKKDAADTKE
In words: competition; unlabeled competitor vs labeled OKRA3; EMSA: 50 mM Tris-HCl pH 8.0, 10 mM MgCl2, 50 mM NaCl, 10 pmol DNA, 30 min at 37 C (legend: 25 C), 2.5% agarose in 0.5x TBE; TEM: 0.3 mg/ml protein, 50 mM sodium phosphate pH 7.5, 150 mM NaCl. Conditions: protein: recombinant; chain copies: 2; blunt.

In data set [3] the target is T2, KfrA R751 (His6-KfrAR751) (IncP-1beta plasmid R751, UniProt P71173 1-342).
T2 sequence: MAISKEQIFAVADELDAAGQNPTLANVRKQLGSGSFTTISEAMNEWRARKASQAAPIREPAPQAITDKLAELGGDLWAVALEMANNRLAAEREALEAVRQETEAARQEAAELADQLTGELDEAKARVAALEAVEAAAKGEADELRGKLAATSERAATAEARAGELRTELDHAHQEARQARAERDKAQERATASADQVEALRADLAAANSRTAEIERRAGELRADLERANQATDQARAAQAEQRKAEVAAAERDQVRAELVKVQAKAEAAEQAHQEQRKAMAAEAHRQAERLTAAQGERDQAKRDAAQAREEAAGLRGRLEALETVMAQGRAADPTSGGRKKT
In words: EMSA; complex unstable, smear; two complexes; EMSA: 50 mM Tris-HCl pH 8.0, 10 mM MgCl2, 50 mM NaCl, 10 pmol DNA, 30 min at 37 C (legend: 25 C), 2.5% agarose in 0.5x TBE; TEM: 0.3 mg/ml protein, 50 mM sodium phosphate pH 7.5, 150 mM NaCl. Conditions: protein: recombinant; chain copies: 2; blunt. Background: A gel shift assay detects complexes by their altered migration in electrophoresis.

Data set [4] has as its target T1, KfrA RA3 (His6-KfrARA3). In words: EMSA; two complexes, some smear; EMSA: 50 mM Tris-HCl pH 8.0, 10 mM MgCl2, 50 mM NaCl, 10 pmol DNA, 30 min at 37 C (legend: 25 C), 2.5% agarose in 0.5x TBE; TEM: 0.3 mg/ml protein, 50 mM sodium phosphate pH 7.5, 150 mM NaCl. Conditions: protein: recombinant; chain copies: 2; blunt.

With His6-KfrA_(R751) (natural protein), the stoichiometry N (in general, a count of units in the complex or per binding partner) in data set [1] was 2 and 4.

B1: OG5/OD5 (#9/#10), specific competitor (dsDNA)
DNA 1: TATGTATTGTATGTATTGTATTAAAATACAATACATACAATACAGG
DNA 2: CCTGTATTGTATGTATTGTATTTTAATACAATACATACAATACATA
Take B1: the binding result in data set [2] is reported as “binds”.

B2: OKR751 (#15/#16), 50 bp (dsDNA)
DNA 1: CTTGCGTAGTGTTGTATGTTGTAGTATGCTACACGCTACAACATACAACC
DNA 2: GGTTGTATGTTGTAGCGTGTAGCATACTACAACATACAACACTACGCAAG
B2: in data set [3], the binding result was “binds”.

B3: OKRA3 (#17/#18), 60 bp (dsDNA)
DNA 1: TCCGTTGTATTGTATGTATTGTATGTATTGTATTAAAATACAATACATACAATACAGGGA
DNA 2: TCCCTGTATTGTATGTATTGTATTTTAATACAATACATACAATACATACAATACAACGGA
As for B3, in data set [4], the binding result was “binds”.
